Laboratory results from patent publication US20080039411A1, “Use Of Resistin Antisense Oligonucleotides And/Or Sirna Molecules In The Treatment Of Rheumatoid Arthritis” (priority 2004, published 2008).

Columns and labels:
[1] = tested on: THP-1 cells; assay: Stimulation of monocytic cell line THP-1; format: cell-based, human
Procedure: (§1) Peripheral blood mononuclear cells (PBMC) were prepared from heparinized blood of healthy individuals by separation on a Lymphoprep density gradient, washed, and resuspended in complete medium (Iscoves medium containing 1% L-glutamine, 5×10^−5 M ®-mercapto ethanol, […] of gentamycin sulphate, and 10% heat inactivated fetal calf serum). Culturing of PBMC was carried out in 24-well plates in a humidified atmosphere of 5% CO2 at 37° C. Culturing of monocytic cell line THP-1 (American Type Culture Collection, Manassas, Va.) was performed in 10-ml culture flasks (Nunclon) in […] medium supplemented with 10% FCS, 1% sodium pyruvate, gentamycin, and 2.5% Hepes in a humidified atmosphere of 5% CO2 at 37° C. For the experiments, 4-days old cells were harvested, washed, and adjusted to 1×10^6 cells/ml.

[2] = tested on: human PBMC (resistin mRNA); assay: Stimulation of human PBMC with pro-inflammatory cytokines: resistin mRNA; format: cell-based; conditions: human PBMC (n=5), physiological concentrations (TNF-alpha 1-5 ng/ml)
Procedure: as §1
(§2) Total RNA from harvested cells was extracted by an RNAeasy kit (Qiagen, Inc.) and concentration was assessed spectrophotometrically at 260 nm. The gene expression was measured with TaqMan real time PCR (Applied Biosystems, Foster City, Calif.) as previously described (N&S, 2001). In short, total RNA extracts were treated with deoxyribonuclease I, and reverse transcribed with random nonamer primers and superscript II RnaseH-reverse transcriptase (life Technologies). After first strand cDNA synthesis, relative transcript cDNA levels were measured using oligonucleotide PCR primers and fluorogenic Taqman probes for test genes and 18S rRNA. […] For generation of the standard curve, serially diluted cDNA prepared from PBMC were used. Each TaqMan set span one or two exon joints in order to increase further both specificity of only RNA detection and efficiency of PCR reaction. Sequences were manually designed with using the PrimerExpress program (Applied Biosystems) to check them for secondary structure, melting temperature, GC content, primer to primer and/or to probe dimmers. The GenBank database was useful to avoid all known sites of oligonucleotide polymorphism and unspecific annealing of any nucleotide.

[3] = tested on: knee joint of healthy mice; assay: Intra-articular injection of recombinant mouse resistin into knee joint, histology; format: in vivo
Procedure: Female NMRI mice, 6-8 weeks old, weighing 25-30 g, were purchased from ALAB (Stockholm, Sweden). The mice were bred and housed in the animal facility of the Department of Rheumatology, University of Göteborg, under standard conditions of temperature and light, and fed laboratory chow and water ad libidum. Mouse recombinant resistin (PeproTech EC, London, U.K.) was injected intra-particularly into the right knee joint (0.1-100 ng/knee) in the total volume of 20 μl. Control mice obtained equivalent volume of mouse albumin (Sigma, St. Louise, Mo.) in PBS buffer. Three days after the joint injection, the mice were sacrificed by cervical dislocation and the right knee was removed for histological examination.
Histological examination of joints was done after routine fixation, decalcification, and paraffin embedding of the tissue. Tissue sections of the knee joints were cut and stained with hematoxylin and eosin. All the slides were coded and evaluated blindly by two investigators with respect to synovial hypertrophy, the inflammatory cell infiltration of synovia, pannus formation, and cartilage and subchondral bone destruction. Synovial hypertrophy was defined as synovial membrane thickness of more than two cell layers. Intensity of in-flammatory cell infiltration of synovia was graded arbitrarily from 0 to 3.

[4] = tested on: synovial cells; assay: In vitro stimulation of synovial cells from patients with acute synovitis; format: cell-based, human; conditions: synovial cells from patients with acute synovitis (n=4)
Procedure: as §2

[5] = tested on: human PBMC; assay: Resistin stimulation of PBMC: cytokine gene expression and cytokine release; format: cell-based
Procedure: as §1
Freshly isolated PBMC were re-suspended to 2×10^6/ml and stimulated with recombinant human resistin (endotoxin concentration less than 0.1 ng/μg, PeproTech) at final concentration 10-1000 ng/ml. LPS (10 ng/ml) was used as a positive control in all the experiments. […] Cell stimulation period differed depending on the read-out system used. […]
Total RNA from harvested cells was extracted by an RNAeasy kit (Qiagen, Inc.) and concentration was assessed spectrophotometrically at 260 nm. The gene expression was measured with TaqMan real time PCR (Applied Biosystems, Foster City, Calif.) as previously described (N&S, 2001). […] After first strand cDNA synthesis, relative transcript cDNA levels were measured using oligonucleotide PCR primers and fluorogenic Taqman probes for test genes and 18S rRNA. […]
The level of IL-6 in synovial fluid and supernatants was determined by a bioassay. The effect of test samples on proliferation of the IL-6 dependent cell line B13.29 [21] was assessed following 72 h of culturing. The results were analyzed by incorporation of [3H]-thymidine (Radiochemical Centre, Amersham, Bucks, U.K.) during the last 4 h of incubation at 37° C. […]
Levels of TNF-α and IL-1B were assessed using an ELISA kit (R&D Systems) following manufacture's recommendations. […]

[6] = tested on: NF-kappaB; assay: Electrophoretic mobility shift assay of nuclear extracts of resistin-stimulated PBMC; format: cell-based, human; conditions: PBMC stimulated with resistin
Procedure: Human PBMC (10^7) were stimulated with recombinant resistin (10-500 ng/ml) as described above. After 2 h, the stimulation was stopped with ice-cold PBS, cells were washed and resuspended in 2 ml hypotonic buffer (pH 7.9, containing 10 mM HEPES, 0.1 mM EDTA, 0.1 mM EGTA, 10 mM KCl, 0.75 mM spermidin, 0.15 mM spermin, […] and proteinase inhibitors, Complete MiniTab, Boehringer) and homogenised. Following centrifugation at 14000 g at 4° C. for 10 min, the supernatant was removed and the pellet was resuspended in the ice-cold extraction buffer (pH 7.9, 20 mM HEPES, 0.42 M NaCl, […], 1 mM EGTA, 25% glycerol, […] and proteinase inhibitors). Extraction proceeded at 4° C. under continuous rotation for 1 h. The supernatants containing nuclear extracts were collected after centrifugation 14000 g for 1 h at 4° C. Protein concentration in the extracts was determined using Bradford reagent (Sigma). Nuclear extracts were aliquoted and stored at −70° C. until use.
EMSA was performed as described elsewhere (Bergquist et al., 2000) with minor modifications. The sequences for oligonucleotides used for the assay were as follows:
Oligonucleotides were annealed at 56° C. The double stranded product was purified by elution from the electrophoretic gel. […]

Molecule: TNF-alpha
- expression of resistin gene ([1]; THP-1 cells): neither stimulation with TNF-a nor with LPS gave rise to the expression of resistin gene
- induction of resistin mRNA [2]: could induce the expression of resistin

Molecule: IL-1b: pro-inflammatory cytokine used to stimulate PBMC
- induction of resistin mRNA [2]: less efficient

Molecule: IL-6: pro-inflammatory cytokine used to stimulate PBMC
- induction of resistin mRNA [2]: less efficient

B1: recombinant mouse resistin: Mouse recombinant resistin (PeproTech EC, London, U.K.) (protein, UniProt Q99P87 21-114, looked up)
Resistin: SSMPLCPIDEAIDKKIKQDFNSLFPNAIKNIGLNCWTVSSRGKLASCPEGTAVLSCSCGSACGSWDIREEKVCHCQCARIDWTAARCCKLQVAS
- histological analysis of injected joints ([3]; 0.1-100 ng/knee intra-articularly, three days after injection): signs of inflammation in the joint
- leukocyte infiltration and hyperplasia of synovia ([3]; single intra-articular injection, 1 ng/knee (50 ng/ml)): sufficient to induce leukocyte infiltration and hyperplasia of synovia

B2: recombinant human resistin: recombinant human resistin (endotoxin concentration less than 0.1 ng/μg, PeproTech) (protein, UniProt Q9HD89 19-108, looked up)
Resistin: KTLCSMEEAINERIQEVAGSLIFRAISSIGLECQSVTSRGDLATCPRGFAVTGCTCGSACGSWDVRAETTCHCQCAGMDWTGARCCRVQP
- cytokine production ([1]; THP-1 stimulated with resistin): cytokine production in the pattern similar to PBMC
- expression of TNF-alpha and IL-6 genes [4]: increased expression of TNF-alpha and IL-6 genes
- IL-6 activity and levels of TNF-alpha and IL-1b in supernatants ([5]; PBMC, 48 hours of stimulation): dose dependent increase
- cytokine gene expression (TNF-alpha, IL-6, IL-1b) in cell lysates ([5]; PBMC, resistin 10-1000 ng/ml): induction of genes for pro-inflammatory cytokines
- resistin gene expression in PBMC ([5]; resistin stimulation, detectable following 3 h up to 24 h): self-stimulation of resistin gene
- NF-kappaB translocation (EMSA) [6]: induced translocation of NF-kappaB from cytoplasma to nucleus
